In paper PMC4177672, “The Vip1 Inositol Polyphosphate Kinase Family Regulates Polarized Growth and Modulates the Microtubule Cytoskeleton in Fungi” (PLoS Genetics, 2014):

Experiments:
[1] = system: O=P(O)(O)O[C@H]1[C@H](OP(=O)(O)O)[C@@H](OP(=O)(O)O)[C@H](OP(=O)(O)O)[C@@H](OP(=O)(O)O)[C@H]1OP(=O)(O)O; experiment: purified protein; details: 0-300 µM IP6; ATP-dependent; 2 µg protein; 6 h
GST-Vip1^1-535 = biological target: T1, GST-Vip1^1-535 (Saccharomyces cerevisiae, UniProt Q06685); experiment: IP7 formation, PAGE with Toluidine Blue stain; format: biochemical; details: 1 µg protein; positive control enzyme
T1 construct: kinase domain residues 1-535, GST tag kept, E. coli Rosetta, purified
T1 sequence (Q06685 1-535): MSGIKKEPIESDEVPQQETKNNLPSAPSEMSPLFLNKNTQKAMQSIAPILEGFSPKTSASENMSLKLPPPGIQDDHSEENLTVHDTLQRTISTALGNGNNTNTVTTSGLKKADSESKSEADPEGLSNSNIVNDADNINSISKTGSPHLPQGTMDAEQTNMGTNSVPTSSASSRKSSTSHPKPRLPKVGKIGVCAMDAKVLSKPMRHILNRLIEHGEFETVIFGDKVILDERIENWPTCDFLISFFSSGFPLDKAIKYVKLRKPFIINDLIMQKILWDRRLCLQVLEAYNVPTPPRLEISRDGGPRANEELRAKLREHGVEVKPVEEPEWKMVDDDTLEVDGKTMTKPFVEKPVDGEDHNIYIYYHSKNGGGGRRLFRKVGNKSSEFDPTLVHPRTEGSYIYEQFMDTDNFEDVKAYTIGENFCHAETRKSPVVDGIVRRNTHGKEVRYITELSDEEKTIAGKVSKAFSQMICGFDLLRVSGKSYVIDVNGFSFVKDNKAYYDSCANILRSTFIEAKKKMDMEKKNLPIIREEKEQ

| Molecule | Km [1] | IP7 formation, PAGE with Toluidine Blue stain (GST-Vip1^1-535) |
| --- | --- | --- |
| GST-Asp1 (full length) (Schizosaccharomyces pombe 972h-) | 58.18 µM | – |
| GST-Asp1 (full length) (Schizosaccharomyces pombe 972h-; H397A) | 57.32 µM | – |
| O=P(O)(O)O[C@H]1[C@H](OP(=O)(O)O)[C@@H](OP(=O)(O)O)[C@H](OP(=O)(O)O)[C@@H](OP(=O)(O)O)[C@H]1OP(=O)(O)O [IP6] | – | S. cerevisiae Vip1 for which enzymatic activity had been demonstrated was used as a positive control |
